Data published in the nanobody polyreactivity screen of Harvey et al. (2022).

Experiment: yeast display, Sf9 membrane polyspecificity reagent, FACS + sequencing; frameworks hold sequencing errors
Procedure, shortened: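 Galactose induction of a Saccharomyces cerevisiae BJ5465 synthetic nanobody display library ran 36–48 hours. The cells were then stained for 1 hour at 4 °C with 10% biotinylated, detergent-solubilized Sf9 membrane reagent, pulled down on streptavidin microbeads and FACS-sorted into low and high (top ~1%) gates on expression and reagent-binding fluorescence. Labels for polyreactivity follow the gate of origin.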

Row | Sequence | polyreactivity (PSR sort gate)
1 | QVQLVESGGVLVQAGGSLPLSCAASGFTFSRYAMGWYRQAPGKEREFVAGISRSGGSTYYADSVKGRFTNTRDNAMNTVSLQMNSLKPEDTAVYYWAKVYPATEAGDYWGQGTQVTVSS | high polyreactivity
2 | QVQLVESGGGLVQAGGSLRISCAASGSIFTAYAMGWYRQAPGKERELVAAITQSAGSTYADSVKGRFTISRDNAKNTVYLPMHSLNQEDTAVSYCAARYRYPYYARYGYWGQGTQVTVSS | high polyreactivity
3 | QVQLVESGGGLVQAGGSLRLSCAASGSTFYGYAMGWYRQAPGKERELVAAITRSGGSTYYADSVKGRFTISRDNAKNTVYLQMNSLKPEDTAVYYCAAEFRYSRVYGYNYWGQGSQVTVSS | high polyreactivity
4 | QVQLVESGVCLVQAGRSLPLSCAASGFTFDSNAMGWSRQAPGNESELVAAISASRDSTYYADSVKGRFTISRDNAKNTVYLQMNSLKPEETAVYYCAADSSDWPYDYWGQCTQVTVSS | low polyreactivity
5 | QVQLHESGGGLVQAGGSLRLSCAASGTISYAGPIGWYRQAPGKEREFVAGIGVCSNTNYADSVKGRYTIIRDNAKNTVYLQMNSLKPEDTAVYYCAAETDSWVGGYSYASLDYWGQGTQVTVSS | low polyreactivity
6 | QVQLVESGGGLVQAGGSLRLSCAASGSIFPIYAMGWYRQAPGKERELVAAINRSGGSTYYADSVKGRFTISRDNAKNTVYLQMNSLKPEDTAVYYCNADYGYHNQLFWGYYGWSSDHWGQGTQVTVSS | low polyreactivity
7 | QVHLVESGGGLVQAGGSLRLSCAASGSIFTGYAMGWYRQAPGKERELVAGISWGGTSTYYADSVKGRFTISRDNAKNTVYLQMNSLKPEDTAVYYCAAKPYYFYGMDYWGQGTQVTVSS | high polyreactivity
8 | QVQLVESGGGLVQAGGSLRLSCAASGSIFYTYAMGWYRQAPWKEREFVAASTGTGVRTYYADSVKGRFTISRDNAKNTVYLPMNSLKPEDTAVYYCAAVSAYRWIGLTNYSTYGYWGQGTQVTVSS | high polyreactivity
9 | QVQLVESGGGFLQAGGSLRLSCAASGRIFNYYAMGWYRQAPGTERELVAGINWSGTRTYYADSVKGRFTISRDNAKNTVYLQMNSLKPEDTAVYYCNAGRTWRAFTGDEYWGQATQVTVSS | high polyreactivity
10 | QVQLVESGGGLVQAGGSLRLSCAASGFIFDLYAMGWYRQAPGKERELVAAISPSGGSTYYADSVKGRFTISRDNAKNTVYLQMNSLKPEDTAVYYCNTGIRWAISKEYDYWGQGTQVTVSS | high polyreactivity
11 | QVQLVESGGGLVQAGGSLRLSCAASGLTFVPNAMGWYRQAPGKERELVAAISNNGGRTYYADSVKGRFTISRDNAKNNVYLQMNSLKPEDTAVYYCAKYLSPGERHSYDYWGQGTQVTLSS | high polyreactivity
12 | QVQLVESGGGLVQAGGSLRLTCDASGSTFVYYAMGWYRQAPGKERELVAAITFSGGTTFYADSVKGRFTISRDNANNTVYLQMNSLKPEDTAVYYCAADAGFADQYANYHGDDYWGQGTQVTVSS | low polyreactivity
13 | QVQLVESGGGLVPAGGSLRLSCAASGRTFPYYDMGWYRQAPGKERELVAAITSGGTTNYADSVKGRFTISRDNAKNTVYLQMNSLKPEDTAVYYCAAGSPWYYFSSYGYWGQGTQVTVSS | low polyreactivity
14 | QVQLVESGGGLVQAGGSLRLSSAASGRTISNYDMGWYRQAPGKERELVAAITYSGGSTYYADSVKGRFTISRDNAKNTVYLQMNSLKPEDTAVYYCAKISGTYYRYDYWGQGTQVTVSS | high polyreactivity
15 | QVQLVESGGGLVQAGGSLRLSCAASGIIFSSNAMGWYRQAPGKERELVAAISRRGGSTSYADSVKGRFTISRDNAKNTVYLQINSLKPEDTAVYYCAARYVYPGEDYWGQGTQVTVSS | high polyreactivity
16 | QVQLVESGGGLVQAGGSLRLSCAASGRTFNRNAMGWYRQAPGKERELVAAISWSGGRTYYADSVKGRFTISRDTAKNTVYLQMNSLKPEDTAVYYCAAPGKKYWGQGTQVTVSS | high polyreactivity
17 | QVQLVESGGGLVQAGGSLRLSCAASGRTFSPYAMGWYRQAPGKERELVAAITSRGASTYYADSVKGRFTISRDNAKNTVYLQINSLKPEDTAVYYCNSGRTYRRLGDYWGQGTQVTVSS | high polyreactivity
18 | QVQLVESGGGLVQAGGSLRLSCAASGRTFRYYTMGWYRQAPGKEREFVAALSSTGGTYYADSVKGRFTISRDNAKNTVYLQMNSLKPEDTADYYCNVSSLNSYTSGTTYWGVDYWGQGTQVTVSS | low polyreactivity
19 | QVQLVESGGGLVQAGGSLRLSCAASGFTFANNAMGWYRQAPGKERELVAAISRSGGSTYYADSVKGRFTISRDNAKNTVYLQMNSLKPEDTAVYYCAKAVFYGPCERNYGLDYWGQGTQVTVSS | high polyreactivity
20 | QDQLVESGGGLVQAGGSLRLSCAASGRIFYPYVMGWYRQAPGKERELVAAISDSTGSTYYADSVKGRFTISRDNAKNTVYLQMNSLKPEDTAVYYWGQGTQVTVSS | low polyreactivity
21 | QVQLVESGGGLVQAGGSLRLSCAASGRIFPYYAIGWYRQAPGKERELVASTNYADSVKGRFTISRDNAKNTVYLQMNSLKPEDTAVYYCNADSVYPPGSDYVVRDGNFDYWGQGTQVTVSS | low polyreactivity
22 | QVQLVESGGGLVQAGGRLRLSFAASGSIFVFYVMGWYRQAHGKERELVAAISNSGSSTYYADSVKGRFTISRDNAKNTVYLQINSLKPEDTAVYYCAAEYKIPVGFDYWGQGTQVTVSS | low polyreactivity

Row | Sequence | polyreactivity (PSR sort gate)
23 | QVQLVESGGGLVQAGGSLRLSCAASGISFSYYAMGLCRQAPGKERELVAAISISGGRTYYADSVKGRFTISRDNAKNTVYLQMNSLKPEDTAVYYCASCVGSRIKQVGNDYWGQVTQVTVSS | high polyreactivity
24 | QDQLVESGGGLVQAGGSLRLSCAASGITFWYYAMGWYRQAPGKERELVAAISQSGGSTFYADSVKGRFTISRDNAKNTVYLQMNRLKPEVTAVYYCATGFFRYLAKFKTYRYDYWGQGTQVTVSS | high polyreactivity
25 | QVQLVESGGRLVQAGGSLRISSAASRFILFPYAMGWYRQAPGKERELVAAIRSDDTTNYADSVKGRFTISRDNAKNTVYLQMNSLKPEDTAVYYCATACYSWVSYDYWGQGTQVTVSS | low polyreactivity
26 | QVQLVESGGGLVQAGGSLRLSCAASGLIFDDYDMGWYRQAPGKERELVAAISLSGGSTFYADSVKGRFTISRDNAKNTVYLLMNSLKPEDTAVYYCAAQARRAYVQTRKYYWGQGTQVTVSS | high polyreactivity
27 | QVQLVDSRGLLVQAGGSLRLSCAASGSTYSYYAMGWYRQAPGKERELVAAITRGGSTYYADSVKGRFTISRDNAKNTVYLQMNSLKPEDPAVYYCSATHVSRRWGMDYWGEGTQVTVSS | high polyreactivity
28 | QVQLVESGGGLVQAGGSLRLSCAASGFIFTSYAMGWYRQAPGKERELVATISSSGGSTTYADSVKGRFTISRDNAKNTVYLQMNSLKPEDTAVYYCAAAVYVVRYVSLYRRYYWGQGTQVTVSS | high polyreactivity
29 | QVQLVESGGGLVQAGGSLRISCAASGIIFRYYAMGWYRQAPGKERELVARISSGGSTKYADSVKGRYTISRDNAKNTVYLQMNSLKPEDTAVYYCAAEYYSLRYAIFYYWGQGTQVTVSS | high polyreactivity
30 | QVQLVESGGGLVQAGGSLRLSCAASGFIFRTYAMGWYRQAPGKEREFVAAISSGSSTYYADSEKGRFTISRDNANNSVYLQMISLKPEDTAVYYCAARVPQQSRTWRGSTRSYRYGYWGQGTQVTVSS | high polyreactivity
31 | QVQLVESGGGLVQAGGSLRLSCAASGFTFWDYAMGWYRQAPGKERELVAAISWSGGSTYYADSVKGRFTISRDNAKNTVYLQMNSLKPEDTAVYYCNAVHYSHHGYDYWGQGTQVTVSS | low polyreactivity
32 | QVQLVESGGGLVQAGGSLRLSCAASGRIFKYYVMGWYRQAPGKESELVAAISSGSGSTYYADSVKGRFTISRDNAKNTVYLQMNSLKPEDTAVYYCNALSSWRRTYGSRYDYWGQGTQVTVSS | high polyreactivity
33 | QVQLVESGGGLVQAGGSLRLSCAASGYIFEYYAMGWYRQAPGKERELVAAISWSGGSTYYADSVKGRFTISRDNAKNTVYFQLNSLKPVDTAVYYCAAEYVTYQQGLWGYDYWGQGTQVTVSS | low polyreactivity
34 | QVKLVESGGGLVQAGGSLRLSCPASGSIFYRNTMGWYRQEPGKERELVASITSGSSTFYADSVKGRFTISRDNAKNTVYLQMNSLKAEDTAVYYCAKRRGSPGFRFRAGGAYGYWGQGTQVTVSS | low polyreactivity
35 | QVQLVESGGGLVQAGGSLRLSCAASGSIFRYYAMGWYRQAPGKERELVAAISQSGTSTYYADSVKGRFTISRDNAKNTVYLQMNSLKPEDTAVYYCAAYPYYDRDYWGQGTQVTVSS | low polyreactivity
36 | QVQLVESGGGLVQAGGSLRLSCAASGRTIDRNAMGWYRQPPGKERELVAAISGSGGRTYYADSVKGRFTISRDNEKNSVYLQMNSLKPEDTAVYYCAARVGSSPSKSKYDYWGQGTQVTVSS | high polyreactivity
37 | QVQSEESGGGLVQAGGSLRLSCAASGLIFDGYSMGWNRQAPGKERELVAAITRSGASTSYADSVKGRFTISRDNAKNTVYLQMNSLKPDDTAVYYCAAKVHTFYYHYYSWGQGTQVTVSS | high polyreactivity
38 | QVQLVESGGGLVQAGGSLRLSCAASGFIFQRYAMGCYRQAPGKERELVAAISKGGGNTYYADSVKGRFTISRDNAKKTVYLQMNSLKPEDTAVYYCNAVPRPDHDYWGQGTQVTVSS | high polyreactivity
39 | QGQLVESGGGLVQAGGSLRLSCAASGSTFWLNAMGWYRHAPGKERELVAVITWSGDGTYYADSVKWRFTISRDNAKNTVYVQMNSLKPEDTAVYYCAKGFERYPWYDYWGQGTQVTVSS | low polyreactivity
40 | QVQLVESGGGLVQAGGSLRLSCAASGSTFESYAMGWYRQAPGKERELVAAISRRGGRTYYADSVKGRFTISRDNAKNTVYLQMYSLKPEDTAVYYCATDSSYYGSDDYWGQGTQVNVSS | high polyreactivity
41 | QVQLVESGGGLVQAGGSLRLSCAASGRTFIRNAMGWYRQAPGKERELVAAISRGGGTYYADSVKGRFTISRDNAKNTVYLQMNSLKPEDTAVYYCAAGFRSPYYWGQGTQVTVSS | high polyreactivity
42 | QVQLVESGGGLVQAGGRLRLSCAASGSTFFIYAMRCFRQAPGKERELVAAISSRGGRTYYADSVKGRFTISRDNAKNTVYLQMNSLKPEDTAVYYCYFLIYSKGQAFDYWGQGTQVSVSS | high polyreactivity
43 | QVHLVESGVGLVQAGGSLRLSCASSGRIFYDNSMGWYRQAPGKERELVAAISYRGGSTYYADSVKGRFTISRDNAKNTVYLLMNSLKPEDTAVYYCARAGFTTCPDHDSWGQGTQVTVSS | high polyreactivity
